According to patent US20210393689A1 (JUNO THERAPEUTICS, published 2021):

T1: CD86 (human, UniProt P42081)
T1 construct: expressed on the surface of HEK293 cells in a cell microarray spot; target of the positive control
T1 sequence (single chain, looked up): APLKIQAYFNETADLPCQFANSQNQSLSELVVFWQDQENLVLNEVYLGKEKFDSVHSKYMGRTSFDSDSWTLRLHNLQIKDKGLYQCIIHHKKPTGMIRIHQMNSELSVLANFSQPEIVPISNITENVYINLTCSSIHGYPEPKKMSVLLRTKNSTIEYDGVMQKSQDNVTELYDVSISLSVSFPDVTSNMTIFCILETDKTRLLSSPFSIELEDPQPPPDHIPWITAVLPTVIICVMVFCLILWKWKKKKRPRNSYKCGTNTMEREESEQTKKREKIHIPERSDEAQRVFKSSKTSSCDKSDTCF

T2: SLC38A2 (human, UniProt Q96QD8)
T2 construct: expressed on the surface of HEK293 cells in a cell microarray spot
T2 sequence (single chain, looked up): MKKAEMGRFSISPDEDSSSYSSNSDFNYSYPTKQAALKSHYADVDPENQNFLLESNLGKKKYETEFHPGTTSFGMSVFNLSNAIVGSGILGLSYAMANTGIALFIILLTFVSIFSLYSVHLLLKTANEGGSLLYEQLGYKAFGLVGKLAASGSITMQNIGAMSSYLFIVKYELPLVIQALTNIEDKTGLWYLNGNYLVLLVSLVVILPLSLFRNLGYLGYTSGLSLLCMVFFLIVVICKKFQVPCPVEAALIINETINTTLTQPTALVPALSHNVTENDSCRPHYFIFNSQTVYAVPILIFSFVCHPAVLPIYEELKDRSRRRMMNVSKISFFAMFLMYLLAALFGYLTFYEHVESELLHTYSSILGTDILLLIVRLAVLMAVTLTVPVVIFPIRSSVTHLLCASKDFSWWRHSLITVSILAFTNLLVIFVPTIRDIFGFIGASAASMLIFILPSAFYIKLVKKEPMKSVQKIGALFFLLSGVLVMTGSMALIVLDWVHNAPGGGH

B1: GPRC5D-203 VL/VH, long spacer CAR but lacking the signaling domains (other)
chain: SSELTQDPAVSVALGQTVRITCQGDSLRSYYASWYQQKPGQAPVLVIYGKNNRPSGIPDRFSGSSSGNTASLTITGAQAEDEADYYCNSRDSSGNPPVVFGGGTKLTVLGSRGGGGSGGGGSGGGGSLEMAQVQLVESGGGLVHPGGSLRLSCAASGFTFRSHSMNWVRQAPGKGLEWVSSISSDSTYTYYADSVKGRFTISRDNAKNSLYLQMNSLRAEDTAVYYCARSGGQWKYYDYWGQGTLVTVSSESKYGPPCPPCPAPPVAGPSVFLFPPKPKDTLMISRTPEVTCVVVDVSQEDPEVQFNWYVDGVEVHNAKTKPREEQFQSTYRVVSVLTVLHQDWLNGKEYKCKVSNKGLPSSIEKTISKAKGQPREPQVYTLPPSQEEMTKNQVSLTCLVKGFYPSDIAVEWESNGQPENNYKTTPPVLDSDGSFFLYSRLTVDKSRWQEGNVFSCSVMHEALHNHYTQKSLSLSLGKMFWVLVVVGGVLACYSLLVTVAFIIFWV
notes: Transiently expressed on HEK293 cells from a cell surface expression vector with cytoplasmic mCherry; also called non-signaling CAR
B2: GPRC5D-205 scFv clone (scFv, V domains shown)
VH: EVQLVESGGGLIQPGGSLRLSCAASGFTFSNYAMNWVRQAPGKGLEWVSTINGRGSSTIYADSVKGRFTISRDNSKNTLYLQMNSLRAEDTATYYCARYISRGLGDSWGQGTLVTV
VL: QSVVTQPPSMSAAPGQQVTISCSGGNSNIERNYVSWYLQLPGTAPKLVIFDNDRRPSGIPDRFSGSKSGTSATLGITGLQTGDEADYYCGTWDSSLRGWVFGGGTKLTVLG
notes: Human scFv from a phage display library
B3: GPRC5D-203 scFv clone (scFv, V domains shown)
VH: QVQLVESGGGLVHPGGSLRLSCAASGFTFRSHSMNWVRQAPGKGLEWVSSISSDSTYTYYADSVKGRFTISRDNAKNSLYLQMNSLRAEDTAVYYCARSGGQWKYYDYWGQGTLVTVSS
VL: SSELTQDPAVSVALGQTVRITCQGDSLRSYYASWYQQKPGQAPVLVIYGKNNRPSGIPDRFSGSSSGNTASLTITGAQAEDEADYYCNSRDSSGNPPVVFGGGTKLTVLG
notes: as for B2
B4: GPRC5D-200 scFv clone (scFv, V domains shown)
VH: EVQLVESGGAFVQPGGSLRLSCAASGFTFSSYAMTWVRQAPGKGLEWVSTISGRGRSTFYADSVKGRFTISRDNSKNTLYLQMNSLRAEDTAVYYCARYYHAGAFDLWGQGTLVTVSS
VL: QSVVTQPASVSGSPGQSITISCTGTSSDVGGYNYVSWYQQHPGKAPKLMIYDVSKRPSGVSNRFSGSKSGNTASLTISGLQAEDEADYYCSSYTSSSTLVFGGGTKLTVLG
notes: Human scFv from a B cell-derived phage display library
B5: GPRC5D-204 scFv clone (scFv, V domains shown)
VH: EVQLVESGGGLVQPGGSLRLSCAASGFTFSNYAMSWVRQAPGKGLEWVSAISGSGNTYYADSVKGRFTISRDNSKNTLYLQMNSLRAEDTAVYYCARGSVRYTDIWGQGTLVTVSS
VL: NFMLTQPHSVSESPGKTVSISCTRTSGAIAGAYVQWFQQRPGSAPTTVIYDDNKRPSGVPDRFSGSIDKSSNSASLTISGLKTEDEADYYCQSYDYDSSNVLFGGGTKLTVLG
notes: as for B2
B6: anti-GPRC5D-203 VL/VH scFv (SEQ ID NO: 8) fused to an mIgG2a Fc (Fc fusion, not shown: a dimerising Fc or GST; small tags and cut ends)
scFv: SSELTQDPAVSVALGQTVRITCQGDSLRSYYASWYQQKPGQAPVLVIYGKNNRPSGIPDRFSGSSSGNTASLTITGAQAEDEADYYCNSRDSSGNPPVVFGGGTKLTVLGSRGGGGSGGGGSGGGGSLEMAQVQLVESGGGLVHPGGSLRLSCAASGFTFRSHSMNWVRQAPGKGLEWVSSISSDSTYTYYADSVKGRFTISRDNAKNSLYLQMNSLRAEDTAVYYCARSGGQWKYYDYWGQGTLVTVSS
notes: also called scFv-Fc
B7: GPRC5D-202 VH/VL - long (anti-GPRC5D CAR) (protein)
chain: EVQLVESGGGLVKPGGSLRLSCAASGFTFSDYYMSWIRQAPGKGLEWVSYISSSGSTIYYADSVKGRFTISRDNAKNSLYLQMNSLRAEDTAVYYCARGYGKAYDQWGQGTLVTVSSGSRGGGGSGGGGSGGGGSLEMAQSVLTQPPSASGTPGQRVTISCSGSRSNVGGNYVFWYQQVPGATPKLLIYRSNQRPSGVPDRFAGSKSGSSASLAISGLRSEDEADYYCATWDDSLSGFVFGTGTKVTVLESKYGPPCPPCPAPPVAGPSVFLFPPKPKDTLMISRTPEVTCVVVDVSQEDPEVQFNWYVDGVEVHNAKTKPREEQFQSTYRVVSVLTVLHQDWLNGKEYKCKVSNKGLPSSIEKTISKAKGQPREPQVYTLPPSQEEMTKNQVSLTCLVKGFYPSDIAVEWESNGQPENNYKTTPPVLDSDGSFFLYSRLTVDKSRWQEGNVFSCSVMHEALHNHYTQKSLSLSLGKMFWVLVVVGGVLACYSLLVTVAFIIFWVKRGRKKLLYIFKQPFMRPVQTTQEEDGCSCRFPEEEEGGCELRVKFSRSADAPAYQQGQNQLYNELNLGRREEYDVLDKRRGRDPEMGGKPRRKNPQEGLYNELQKDKMAEAYSEIGMKGERRRGKGHDGLYQGLSTATKDTYDALHMQALPPR
B8: GPRC5D-202 scFv clone (scFv, V domains shown)
VH: EVQLVESGGGLVKPGGSLRLSCAASGFTFSDYYMSWIRQAPGKGLEWVSYISSSGSTIYYADSVKGRFTISRDNAKNSLYLQMNSLRAEDTAVYYCARGYGKAYDQWGQGTLVTVSS
VL: QSVLTQPPSASGTPGQRVTISCSGSRSNVGGNYVFWYQQVPGATPKLLIYRSNQRPSGVPDRFAGSKSGSSASLAISGLRSEDEADYYCATWDDSLSGFVFGTGTKVTVLG
notes: as for B2
B9: GPRC5D-201 scFv clone (scFv, V domains shown)
VH: QMQLVQSGAEVKKPGASVKVSCKASGYTFNRYAITWVRQAPGQGLEWMGWISAYNGNSHYAQKLQGRVTMTTDTSTGTAYMELRRLRSDDTAVYYCARMAYDSWGQGTLVTVSS
VL: QSVLTQPASVSGSPGQSLTISCTGTSNDVGAYKYVSWYQQYPGKAPKLILYDVFKRPSGVSNRFSGSKSDNTASLTISGLQAEDEADYYCFSLTSSNTYVFGTGTKVTVLG
notes: as for B2
B10: GPRC5D-206 scFv clone (scFv, V domains shown)
VH: QVQLVQSGAEVKKPGASVKVSCKASGYTFTSYYMHWVRQAPGQGLEWMGIINPSGGSTRYAQKFQGRVTMTRDTSTSTVYMELSSLRSEDTAVYYCARGSSRWGGWTGDYWGQGTLVTVSS
VL: QSALTQPASVSGSPGQSITISCTGTSSDVGGYNFVSWYQQHPGKAPKVMIYDVSKRPSGISNRFSGSKSGNTASLTISGLQVEDEAEYYCSSYTSTRTVIFAGGTKVTVLG
notes: as for B2

Legend:
[1] = target: T3, human G protein-coupled receptor class C group 5 member D (GPRC5D) (human, UniProt Q9NZD1 1-345); assay: cell-cell interaction by automated flow cytometry: HEK293 cells with the non-signaling GPRC5D-203 long spacer CAR (mCherry) against HEK293 cells each expressing one human GPCR (GFP); Z-score
T3 construct: also called hGPRC5D
T3 sequence (Q9NZD1 whole entry): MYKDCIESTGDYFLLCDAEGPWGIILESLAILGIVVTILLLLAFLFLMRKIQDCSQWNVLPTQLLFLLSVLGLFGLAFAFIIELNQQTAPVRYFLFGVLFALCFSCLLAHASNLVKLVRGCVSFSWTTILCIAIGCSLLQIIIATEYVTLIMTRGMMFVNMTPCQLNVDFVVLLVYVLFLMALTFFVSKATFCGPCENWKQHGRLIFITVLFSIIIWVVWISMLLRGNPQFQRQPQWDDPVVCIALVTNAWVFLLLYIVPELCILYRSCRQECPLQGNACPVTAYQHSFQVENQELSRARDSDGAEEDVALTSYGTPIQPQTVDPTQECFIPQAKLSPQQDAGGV
Procedure: In parallel, the cDNA of individual receptors from a library of human GPCRs, in a vector expressing cytoplasmic GFP, was transiently expressed in the HEK293 cells. […] Binding was determined using an automated flow cytometric assay that detects cell-cell interaction.

[2] = target: T3, human G protein-coupled receptor class …; assay: ELISA-based epitope mapping on overlapping 15-mer peptides of the GPRC5D extracellular domains linked to scaffolds (linear, conformational, discontinuous)
[3] = target: T3, human G protein-coupled receptor class …; assay: scFv phage clones from panning on hGPRC5D-aAPCs, binding to MM cell lines MM.1S and NCI-H929 (endogenous GPRC5D)
CD86 = target: T1, CD86; assay: cell microarray of HEK293 cells expressing the indicated surface protein, probed with scFv-mIgG2a Fc
Procedure: (§1) Cell microarrays were assessed for binding by automated fluorescent microscopy with a fluorescently labeled anti-mIgG2a secondary antibody.

EGFR = target: T4, EGFR (human, UniProt P00533); assay: as above
T4 construct: expressed on the surface of HEK293 cells in a cell microarray spot
Procedure: as §1

SLC38A2 = target: T2, SLC38A2; assay: as above
Procedure: as §1

[4] = target: cynomolgus GPRC5D (cynomolgus); assay: cell-based or functional assay

Binder | binding result [2] | binding result [3] | other results
B1 | – | – | binding result [1]: binds
B2 | binds | – | –
B3 | binds | – | –
B4 | – | binds | –
B5 | – | binds | –
B6 | – | – | binding result (CD86): no binding; binding result (EGFR): no binding; binding result (SLC38A2): no binding
B7 | – | – | interferon gamma release by CAR-transduced NHP T cells [4]: 10000 pg/mL
B8 | binds | – | –
B9 | binds | – | –
B10 | – | binds | –
